In article PMC8111768:

Legend:
[1] = biological target: VIC16 REFORMab SDIEALGA (G236A/S239D/A330L/I332E) (mouse | human); experiment: SPR
[2] = biological target: VIC16 REFORMab EFTEA (G236A/S267E/H268F/S324T/I332E) (mouse | human); experiment: SPR

recombinant human FcγR3B, sequence (O75015 17-200): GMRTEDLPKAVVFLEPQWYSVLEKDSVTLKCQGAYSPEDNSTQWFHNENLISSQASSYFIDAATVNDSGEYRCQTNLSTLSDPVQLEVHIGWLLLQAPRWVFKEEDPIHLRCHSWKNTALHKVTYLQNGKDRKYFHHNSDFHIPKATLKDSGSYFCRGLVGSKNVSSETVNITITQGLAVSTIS

Substance: recombinant human FcγR3B (from UniProt O75015 17-200) (receptor)
- Kd [1]: 3.2 µM
- Kd [2]: 475 µM
